Data published in article PMC8514943, “^68Ga-Labeled GX1 Dimer: A Novel Probe for PET/Cerenkov Imaging Targeting Gastric Cancer” (Frontiers in Oncology, 2021).
Where two headings read alike, the source gives them in different places. Positions of bridges follow the written chain, without caps; N, C: chain ends. Residues, ends and D or L forms follow the SMILES beside them. *: point of attachment. DOTA = O=C(O)CN1CCN(CC(=O)O)CCN(CC(=O)*)CCN(CC(=O)O)CC1

Columns and labels:
BGC-823 tumors = test: Biodistribution in tumor-bearing nude mice; type: in vivo, nude BALB/c mice
Protocol: All of the experiments were performed according to a protocol approved by the Fourth Military Medical University (FMMU) Animal Care and Use Committee. A total of 0.2 ml of cell suspension (BGC823, 2 × 10^6 cells) was implanted by subcutaneous injection into the right upper limb of athymic female nude BALB/c mice (age, 4–6 weeks; weight, 15–20 g). When the diameter of the tumor reached approximately 8 mm, it could be used for imaging. […] For the biodistribution of the probes, 3.7 × 10^6 Bq of probe was injected intravenously. […] The percentage of injected dose per gram (%ID/g) was calculated. […] The %ID/g was calculated as described previously.

[1] = 37°C, determined at 0, 30, 60, 90 min, value holds for 90 min, radioactive TLC
Protocol: We used four kinds of solutions to observe the stability of the probes, namely, raw solution, normal saline, fresh mouse serum, and human serum. The specific methods were as follows: the probe and each solution were mixed according to a volume ratio of 1:100, and the original solution was kept as a control. The radiochemical purity of the solution was determined at 0, 30, 60, and 90 min. A curve was drawn to observe the stability of the probe in vitro and to speculate whether the probe would be removed from the standard in vivo.
Four kinds of solutions were used to observe the stability of the probe, namely, raw solution, normal saline, fresh mouse serum, and human serum. The probe was mixed with each solution at a volume ratio of 1:100, and the original solution was retained as a control. The radiochemical purity of the solution was determined after incubation for 0, 30, 60, and 90 min at 37°C.

NCCCC[C@H](NC(=O)[C@H](CCC(=O)O)NC(=O)[C@H](CCCCN)NC(=O)[C@@H]1CSSC[C@H](NC(=O)CN2CCN(CC(=O)O)CCN(CC(=O)O)CCN(CC(=O)O)CC2)C(=O)NCC(=O)N[C@@H](CC(N)=O)C(=O)N[C@@H](CO)C(=O)N[C@@H](CC(N)=O)C(=O)N2CCC[C@H]2C(=O)N[C@@H](CCCCN)C(=O)N[C@@H](CO)C(=O)N1)C(=O)N[C@H]1CSSC[C@@H](C(=O)O)NC(=O)[C@H](CO)NC(=O)[C@H](CCCCN)NC(=O)[C@@H]2CCCN2C(=O)[C@H](CC(N)=O)NC(=O)[C@H](CO)NC(=O)[C@H](CC(N)=O)NC(=O)CNC1=O [^68Ga-DOTA-KEK-(GX1)2, metal not drawn] ({DOTA}-CGNSNPKSCKEKCGNSNPKSC-OH; disulfide 1-9, 13-21)
radiation of the tumor over time (BGC-823 tumors; 3.7 × 10^6 Bq i.v., 30, 60, 90 min, while kidney and liver radioactivity reduced rapidly): decreased relatively slowly | %ID/g of the tumor compared with organs (BGC-823 tumors; 3.7 × 10^6 Bq i.v., 60 min, except for the liver and kidney): higher than that of other normal organs | uptake by tumors compared between probes (%ID/g) (BGC-823 tumors; 3.7 × 10^6 Bq i.v., 60 min postinjection): much higher than that of ^68Ga-DOTA-GX1 | T/NT ratios (BGC-823 tumors; tumor/nontumor ratios, 30, 60, 90 min after injection): increased over time | labeling rate (radiochemical purity) remaining ([1]; fresh mouse serum, probe:solution 1:100 v/v): above 95% | labeling rate (radiochemical purity) remaining ([1]; human serum, probe:solution 1:100 v/v): above 95% | labeling rate (radiochemical purity) remaining ([1]; normal saline, probe:solution 1:100 v/v): above 95% | labeling rate (radiochemical purity) remaining ([1]; raw (original) solution kept as control): above 95%
